Measurements taken from patent US20250277032A1.

Assays:
[1] = target: human ILT3 on the cell surface (recombinant human ILT3 exogenously overexpressed on HEK cells; ILT3 on THP-1 cells, DCs, macrophages) (human) (UniProt Q8NHJ6); assay: flow cytometry on HEK cells overexpressing recombinant human ILT3
[2] = target: human ILT3 on the cell surface (recombinant human ILT3 exogenously overexpressed on HEK cells; ILT3 on THP-1 cells, DCs, macrophages) (human) (UniProt Q8NHJ6); assay: cell-based or functional assay

fibronectin (FN1), P02751 32-2477 (ligand), sequence (P02751 32-2477 limits assumed): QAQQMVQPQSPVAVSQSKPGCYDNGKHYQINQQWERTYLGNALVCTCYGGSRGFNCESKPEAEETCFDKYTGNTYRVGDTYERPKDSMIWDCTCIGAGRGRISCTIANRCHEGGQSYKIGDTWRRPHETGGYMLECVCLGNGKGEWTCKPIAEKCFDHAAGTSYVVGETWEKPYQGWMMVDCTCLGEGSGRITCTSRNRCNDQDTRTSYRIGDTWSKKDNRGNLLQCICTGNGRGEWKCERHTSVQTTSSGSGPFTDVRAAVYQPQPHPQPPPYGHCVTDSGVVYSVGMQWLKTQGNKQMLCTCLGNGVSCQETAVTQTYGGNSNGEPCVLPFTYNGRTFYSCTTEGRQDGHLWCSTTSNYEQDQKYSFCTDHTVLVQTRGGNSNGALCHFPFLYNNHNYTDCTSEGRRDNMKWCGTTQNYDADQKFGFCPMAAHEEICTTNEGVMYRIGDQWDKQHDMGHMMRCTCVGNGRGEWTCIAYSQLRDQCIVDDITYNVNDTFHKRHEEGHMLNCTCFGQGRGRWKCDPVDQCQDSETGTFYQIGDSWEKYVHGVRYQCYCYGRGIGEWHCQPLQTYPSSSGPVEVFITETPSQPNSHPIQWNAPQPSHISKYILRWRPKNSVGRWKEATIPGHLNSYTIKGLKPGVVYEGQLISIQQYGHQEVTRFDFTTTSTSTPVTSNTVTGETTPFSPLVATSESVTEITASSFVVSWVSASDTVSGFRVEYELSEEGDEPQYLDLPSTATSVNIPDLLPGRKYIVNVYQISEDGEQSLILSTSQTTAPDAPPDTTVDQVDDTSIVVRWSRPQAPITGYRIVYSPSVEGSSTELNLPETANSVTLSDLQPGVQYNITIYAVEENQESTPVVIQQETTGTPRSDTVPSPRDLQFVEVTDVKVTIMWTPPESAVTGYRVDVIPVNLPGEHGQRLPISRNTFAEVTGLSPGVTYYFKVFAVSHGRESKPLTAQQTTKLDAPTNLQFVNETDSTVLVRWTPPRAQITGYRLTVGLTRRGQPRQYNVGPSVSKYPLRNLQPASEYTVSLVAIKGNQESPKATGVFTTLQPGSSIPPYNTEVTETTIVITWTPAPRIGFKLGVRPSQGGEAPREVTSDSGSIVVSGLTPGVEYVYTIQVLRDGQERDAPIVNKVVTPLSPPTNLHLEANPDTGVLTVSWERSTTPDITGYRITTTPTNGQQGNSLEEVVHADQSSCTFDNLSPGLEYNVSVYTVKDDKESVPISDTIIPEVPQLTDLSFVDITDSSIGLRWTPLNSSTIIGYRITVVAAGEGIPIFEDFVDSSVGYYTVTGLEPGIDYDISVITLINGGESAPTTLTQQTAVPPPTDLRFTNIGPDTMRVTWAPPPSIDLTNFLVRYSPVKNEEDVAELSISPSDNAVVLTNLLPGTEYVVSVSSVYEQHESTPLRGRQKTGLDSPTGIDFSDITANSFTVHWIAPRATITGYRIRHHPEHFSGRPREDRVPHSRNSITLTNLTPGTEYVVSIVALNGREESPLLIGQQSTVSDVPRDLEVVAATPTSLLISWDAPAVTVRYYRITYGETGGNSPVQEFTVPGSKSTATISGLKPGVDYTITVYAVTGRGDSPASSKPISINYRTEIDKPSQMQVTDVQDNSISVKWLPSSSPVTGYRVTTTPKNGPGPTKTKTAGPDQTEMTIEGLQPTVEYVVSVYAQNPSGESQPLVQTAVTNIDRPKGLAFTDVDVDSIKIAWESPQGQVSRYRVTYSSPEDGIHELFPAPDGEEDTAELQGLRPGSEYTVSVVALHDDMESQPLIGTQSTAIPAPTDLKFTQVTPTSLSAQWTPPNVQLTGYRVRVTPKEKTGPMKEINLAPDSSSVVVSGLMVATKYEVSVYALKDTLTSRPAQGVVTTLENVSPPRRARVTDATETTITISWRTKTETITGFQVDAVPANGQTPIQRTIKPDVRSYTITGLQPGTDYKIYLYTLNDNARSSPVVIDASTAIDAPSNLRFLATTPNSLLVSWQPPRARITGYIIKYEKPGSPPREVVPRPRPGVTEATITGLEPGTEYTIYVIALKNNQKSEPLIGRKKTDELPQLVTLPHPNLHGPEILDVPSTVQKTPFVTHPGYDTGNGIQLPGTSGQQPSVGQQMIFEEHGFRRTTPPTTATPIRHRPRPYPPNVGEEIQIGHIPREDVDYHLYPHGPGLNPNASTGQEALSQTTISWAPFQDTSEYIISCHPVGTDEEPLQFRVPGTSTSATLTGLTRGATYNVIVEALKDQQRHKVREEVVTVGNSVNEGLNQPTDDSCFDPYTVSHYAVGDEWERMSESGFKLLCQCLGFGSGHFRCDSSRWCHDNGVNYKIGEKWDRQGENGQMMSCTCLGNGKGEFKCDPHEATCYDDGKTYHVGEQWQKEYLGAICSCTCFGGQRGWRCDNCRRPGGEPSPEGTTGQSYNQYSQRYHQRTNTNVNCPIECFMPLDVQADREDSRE

Row | Substance | average fluorescence [1] | decrease in IL-8 secretion from THP-1 cells activated with immobilized Rituximab [2] [%]
1 | ZM4.1 (commercial anti-ILT3 antibody) | 118 | 
2 | fibronectin (FN1), P02751 32-2477 (ligand) |  | 67
